Reference: publication PMC7612745 (Nature, 2019)
Where no end group is shown, it is not given here.

Columns and labels:
[1] = biological target: isolated nucleotide-binding domain of TmrB (NBD of TmrB) (Thermus thermophilus HB27, UniProt Q72J04); test: SEC
[2] = biological target: T1, Thermus thermophilus multidrug resistance proteins A and B (TmrAB), wild type heterodimer (Thermus thermophilus, UniProt Q72J05;Q72J04); test: fluorescence polarisation
T1 sequence 1: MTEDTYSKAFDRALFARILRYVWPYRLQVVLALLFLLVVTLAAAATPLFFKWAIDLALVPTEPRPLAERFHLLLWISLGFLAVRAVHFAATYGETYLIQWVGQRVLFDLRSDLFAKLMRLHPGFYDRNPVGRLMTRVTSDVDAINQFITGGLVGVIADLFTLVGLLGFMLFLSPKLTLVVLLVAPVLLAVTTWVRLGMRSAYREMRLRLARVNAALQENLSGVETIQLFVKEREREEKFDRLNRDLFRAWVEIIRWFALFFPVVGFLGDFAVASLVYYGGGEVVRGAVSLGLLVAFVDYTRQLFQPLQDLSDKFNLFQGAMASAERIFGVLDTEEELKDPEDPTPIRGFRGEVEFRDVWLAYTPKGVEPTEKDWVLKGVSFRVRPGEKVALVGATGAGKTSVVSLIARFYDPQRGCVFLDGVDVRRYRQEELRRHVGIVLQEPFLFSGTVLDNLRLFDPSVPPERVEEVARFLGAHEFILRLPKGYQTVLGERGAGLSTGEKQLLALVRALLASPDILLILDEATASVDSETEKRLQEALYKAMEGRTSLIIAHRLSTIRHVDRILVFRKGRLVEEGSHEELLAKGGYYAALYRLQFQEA
T1 sequence 2: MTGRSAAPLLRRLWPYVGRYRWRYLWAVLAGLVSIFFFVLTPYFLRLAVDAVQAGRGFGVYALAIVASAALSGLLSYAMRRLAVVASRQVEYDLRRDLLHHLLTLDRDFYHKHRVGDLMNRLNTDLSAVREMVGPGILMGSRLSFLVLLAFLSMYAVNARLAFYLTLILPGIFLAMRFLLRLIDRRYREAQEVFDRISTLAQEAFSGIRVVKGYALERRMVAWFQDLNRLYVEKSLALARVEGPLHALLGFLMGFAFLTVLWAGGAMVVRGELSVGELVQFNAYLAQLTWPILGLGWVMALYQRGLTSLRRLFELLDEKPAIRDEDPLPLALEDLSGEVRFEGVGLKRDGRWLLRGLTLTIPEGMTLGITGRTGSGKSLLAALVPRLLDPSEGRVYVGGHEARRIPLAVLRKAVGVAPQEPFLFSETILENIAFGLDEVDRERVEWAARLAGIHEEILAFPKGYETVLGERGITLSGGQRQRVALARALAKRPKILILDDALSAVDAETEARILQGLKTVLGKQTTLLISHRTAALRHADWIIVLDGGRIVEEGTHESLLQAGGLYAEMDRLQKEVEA

B1: Nb9F10, TmrAB-specific nanobody (alpaca) (VHH)
VHH: QLQLVESGGGLVQPGDSLRLSCAVSGSALDYNAIGWFRQAPGKEREGVACISKITGNTAYADSVKGRFTISRDNAKNTVHLQMNSLKPEDTAVYYCATVTAVLLPGRCVPGKYWGQGTPVTVSS
binding result [1]: binds

B2: fluorescent peptide RRY(C^Fluorescein)KSTEL (C4F) (peptide)
peptide: RRYC(fluorescein)KSTEL
binding result [2]: binds
